Test results from patent publication US7226791B2, “Polynucleotides encoding novel guanylate binding proteins (GBP's)” (Bristol-Myers Squibb Company, priority 2003, dated 2007).

T1: GBP-1 (Homo sapiens, UniProt P32455)
T1 sequence (P32455 1-592): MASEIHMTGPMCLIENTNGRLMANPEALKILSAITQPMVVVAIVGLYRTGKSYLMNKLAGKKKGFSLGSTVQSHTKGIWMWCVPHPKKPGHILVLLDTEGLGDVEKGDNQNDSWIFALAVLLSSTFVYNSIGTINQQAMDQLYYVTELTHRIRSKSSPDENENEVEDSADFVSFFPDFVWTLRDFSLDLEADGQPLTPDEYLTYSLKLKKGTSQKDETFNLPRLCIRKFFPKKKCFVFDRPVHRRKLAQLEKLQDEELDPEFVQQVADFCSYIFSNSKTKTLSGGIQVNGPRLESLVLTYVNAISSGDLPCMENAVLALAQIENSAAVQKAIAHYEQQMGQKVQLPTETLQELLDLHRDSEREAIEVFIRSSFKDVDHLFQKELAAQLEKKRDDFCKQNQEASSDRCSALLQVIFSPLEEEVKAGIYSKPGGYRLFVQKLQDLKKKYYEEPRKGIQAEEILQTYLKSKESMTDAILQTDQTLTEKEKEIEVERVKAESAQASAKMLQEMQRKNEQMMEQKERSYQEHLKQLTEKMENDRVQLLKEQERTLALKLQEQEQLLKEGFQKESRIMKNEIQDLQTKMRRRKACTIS

B1: AK096141: human guanylate binding protein HGBPBMY1, AA SEQ ID NO:3 (protein, listed as Homo sapiens)
chain: MASEIHMPGPVCLIENTKGHLVVNSEALEILSAITQPVVVVAIVGLYRTGKSYLMNKLAGKNKGFPLGCTVKSETKGIWMWCVPHPSKPNHTLILLDTEGLGDMEKSDPKSDSWIFALAVLLSSSFVYNSMGTINHQALEQLHYVTELTELIRAKSCPRPDEVEDSSEFVSFFPDFIWTVRDFTLELKLDGHPITEDEYLENALKLISGKNPQIQNSNKPREWIRHFFPKQKCFVFDRPINDKKLLLHVEEVREDQLDSNFQMQSENFCSYIFTHAKTKTLREGILVTGNRLGMLVETYLDAINSGATPCLENAMAVLAQCENSAAVQRAANHYSQQMAQQVRFPTDTLQELLDVHAVCEREAIAVFMEYSFKDKSQEFQKKLVDTMEKKKEDFVLQNEEASAKYCQAELKRLSELLTESISRGTFFVPGGHNIYLEAKKKIEQDYTLVPRKGVKADEVLQSFLQSQVVIEESILQSDKALTAGEKAIAAKQAKKEAAEKEQELLRQKQKEQQQMMEAQERSFQENIAQLKKKMERERENYMRELRKMLSHKMKVLEELLTEGFKEIFESLNEEINRLKEQIEAAENEEPSVFSQILDVAGSIFIAALPGAAKLVDLGMKILSSLCNRLRNPGKKIIS
B2: FLJ10961: human guanylate binding protein HGBPBMY4, AA SEQ ID NO:9 (protein, listed as Homo sapiens)
chain: MAPEIHMTGPMCLIENTNGELVANPEALKILSAITQPVVVVAIVGLYRTGKSYLMNKLAGKNKGFSLGSTVKSHTKGIWMWCVPHPKKPEHTLVLLDTEGLGDVKKGDNQNDSWIFTLAVLLSSTLVYNSMGTINQQAMDQLYYVTELTHRIRSKSSPDENENEDSADFVSFFPDFVWTLRDFSLDLEADGQPLTPDEYLEYSLKLTQGNRKLAQLEKLQDEELDPEFVQQVADFCSYIFSNSKTKTLSGGIKVNGPCLESLVLTYINAISRGDLPCMENAVLALAQIENSAAVQKAIAHYDQQMGQKVQLPAETLQELLDLHRVSEREATEVYMKNSFKDVDHLFQKKLAAQLDKKRDDFCKQNQEASSDRCSALLQVIFSPLEEEVKAGIYSKPGGYCLFIQKLQDLEKKYYEEPRKGIQAEEILQTYLKSKESVTDAILQTDQILTEKEKEIEVECVKAESAQASAKMVEEMQIKYQQMMEEKEKSYQEHVKQLTEKMERERAQLLEEQEKTLTSKLQEQARVLKERCQGESTQLQNEIQKLQKTLKKKTKRYMSHKLKI
B3: 4843—1: human guanylate binding protein HGBPBMY2, AA SEQ ID NO:5 (protein, listed as Homo sapiens)
chain: MESGPKMLAPVCLVENNNEQLLVNQQAIQILEKISQPVVVAIVGLYRTGKSYLMNHLAGQNHGFPLGSTVQSETKGIWMWCVPHPSKPNHTLVLLDTEGLGDVEKGDPKNDSWIFALAVLLCSTFVYNSMSTINHQALEQLHYVTELTELIKAKSSPRPDGVEDSTEFVSFFPDFLWTVRDFTLELKLNGHPITEDEYLENALKLIQGNNPRVQTSNFPRECIRRFLPKRKCFVFDRPTNDKDLLANIEKVSEKQLDPKFQEQTNIFCSYIFTHARTKTLREGITVTGNRLGTLAVTYVEAINSGAVPCLENAVITLAQRENSAAVQRASDYYSQQMAQRVKFPTDTLQELLDVHAACEREAIAIFMEHSFKDENQEFQKKFMETTMNKKGDFLLQNEESSVQYCQAKLNELSKGLMESISAGSFSVPGGHKLYMETKERIEQDYWQVPRKGVKAKEVFQRFLESQMVIEESILQSDKALTDREKAVAVDRAKKEAAEKEQELLKQKLQEQQQQMEAQVKSRKENIAQLKEKLQMEREHLLREQIMMLEHTQKVQNDWLHEGFKKKYEEMNAEISQFKRMIDTTKNDDTPWIARTLDNLADELTAILSAPAKLIGHGVKGVSSLFKKHKLPFKGGRADPAFLYKVVDLEGPRFEQKLISEEDLNMHTGHHHHHH

Legend:
GBP-1 [1] = target: T1, GBP-1; details: purified GBP-1 protein, GTP hydrolysis; read-out: Km for substrate; cited from earlier work
MCP-1 = assay: TNFα-induced MCP-1 expression in human umbilical vein endothelial cells, ELISA; assay type: cell-based; details: HUVECs, 100 nM siRNA duplexes, 6 hours 10 ng/ml TNFα; FIG. 50B
Description: (§1) In some experiments, human umbilical vein endothelial cells (HUVECs, Clonetics Corp., San Diego, Calif., USA) were transfected using lipofectamine 2000 with 100 nM siRNA duplexes. Cells were cultured overnight, and then stimulated for 6 hours with 10 ng/ml TNFα. Supernatants were analyzed for MCP-1 and IL-8 levels by ELISA (Pharmingen, San Diego, Calif., USA). Cytokine levels were corrected for cell number using the CELL TITER kit (Promega).

GBP-1 [2] = assay: siRNA knockdown of GBP-1 protein expression in Cos-7 cells, myc western blot; assay type: cell-based; details: Cos-7 cells co-transfected with GBP-1 expression vector, 40 nM siRNA duplex; FIG. 50A
Description: (§2) To test for knockdown of protein expression using siRNAs, Cos-7 cells were transfected as described herein with expression vectors encoding either GBP-1 or GBP-2 in the presence and absence of 40 nM siRNA duplex specific for either GBP-1 (“1–3”, […], (SEQ ID NO:79), Qiagen, Inc.) or GBP-2 (“582”, […] (SEQ ID NO:80), Sequitur Inc., Natick, Mass.). Approximately 18 hours following transfection, cells were harvested using trypsin, and lysed in RIPA buffer as described previously. Lysates were electrophoresed through 4–20% tris-glycine gels, transferred to nitrocellulose, blocked overnight with 5% non-fat dry milk and 0.3% BSA in Tris-buffered saline, and probed with a mouse monoclonal antibody specific for the myc epitope tag.

IL-8 = assay: TNFα-induced IL-8 secretion in human umbilical vein endothelial cells, ELISA; assay type: cell-based; details: HUVECs, 100 nM siRNA duplexes, 6 hours 10 ng/ml TNFα
Description: as §1

GBP-2 = assay: siRNA knockdown of GBP-2 protein expression in Cos-7 cells, myc western blot; assay type: cell-based; details: Cos-7 cells co-transfected with GBP-2 expression vector, 40 nM siRNA duplex; FIG. 50A
Description: as §2

[3] = Guanine nucleotide binding: Cos-7 lysates on agarose coated with GTP, myc western blot; details: myc-tagged protein expressed in Cos-7 cells; FIG. 49
Description: (§3) Genes encoding different GBP family members were cloned into the vector pcDNA3.1mychis (Invitrogen) for expression in mammalian cells. Cos-7 cells were transfected with 5 μg of DNA per group using lipofectamine 2000 (Invitrogen) according to manufacturer's instructions. Approximately 18 hours after transfection, the cells were harvested using trypsin and lysed in RIPA buffer (10 mM sodium phosphate pH 7.2, 0.25 M sodium chloride, 0.1% SDS, 1% NP40, 1% sodium deoxycholate, 2 mM EDTA, protease inhibitor cocktail). An aliquot of the lysate was reserved for the whole cell lysate sample. The remainder was divided in thirds, and incubated for three hours at 4° C. with agarose coated with either GTP, GDP, or GMP (Sigma Chemical Company). The beads were pelleted, washed with buffer (0.1% NP40, 150 mM NaCl, 50 mM Tris pH7.5), and resuspended in SDS sample buffer. Samples were electrophoresed through 4–20% tris-glycine gels, transferred to nitrocellulose, blocked overnight with 5% non-fat dry milk and 0.3% BSA in Tris-buffered saline, and probed with a mouse monoclonal antibody specific for the myc epitope tag (Invitrogen).

[4] = Guanine nucleotide binding: Cos-7 lysates on agarose coated with GDP, myc western blot; details: myc-tagged protein expressed in Cos-7 cells; FIG. 49
Description: as §3

[5] = Guanine nucleotide binding: Cos-7 lysates on agarose coated with GMP, myc western blot; details: myc-tagged protein expressed in Cos-7 cells; FIG. 49
Description: as §3

Row | Molecule | inhibition of TNFα-induced MCP-1 expression (MCP-1) | inhibition of IL-8 secretion (IL-8) | binding to GTP agarose beads [3] | binding to GDP agarose beads [4] | binding to GMP agarose beads [5] | other results
1 | Nc1nc2c(ncn2[C@@H]2O[C@H](COP(=O)(O)OP(=O)(O)OP(=O)(O)O)[C@@H](O)[C@H]2O)c(=O)[nH]1 [GTP] | – | – | – | – | – | Km (GBP-1 [1]): 470 µM
2 | GCUCGAGAAACUACAAGAUTT, (SEQ ID NO:79) [1–3] | 70% | failed to inhibit | – | – | – | knockdown of GBP-1 protein expression (GBP-1 [2]): specific knockdown
3 | UUUGUAUUUCCUCCAACAUTT (SEQ ID NO:80) (chemistry not given here; listed as Homo sapiens) [Compound 582] | approximately 40% | failed to inhibit | – | – | – | knockdown of GBP-2 protein expression (GBP-2): specific knockdown
4 | B1 | – | – | not at all | bound weakly | bound weakly | –
5 | B2 | – | – | weakly | bound well | bound well | –
6 | B3 | – | – | did not bind | did not bind | did not bind | –
